Source: doi:10.64898/2025.12.15.693380 (bioRxiv, 2025)

Molecular target: the molecule itself
Experiment: cryo-EM structure

B1: full-length human NCBE (Na+-dependent Cl-/HCO3- exchanger, SLC4A10) (natural protein, UniProt Q6U841 1-1118, looked up)
chain: MEIKDQGAQMEPLLPTRNDEEAVVDRGGTRSILKTHFEKEDLEGHRTLFIGVHVPLGGRKSHRRHRHRGHKHRKRDRERDSGLEDGRESPSFDTPSQRVQFILGTEDDDEEHIPHDLFTELDEICWREGEDAEWRETARWLKFEEDVEDGGERWSKPYVATLSLHSLFELRSCILNGTVLLDMHANTLEEIADMVLDQQVSSGQLNEDVRHRVHEALMKQHHHQNQKKLTNRIPIVRSFADIGKKQSEPNSMDKNAGQVVSPQSAPACVENKNDVSRENSTVDFSKGLGGQQKGHTSPCGMKQRHEKGPPHQQEREVDLHFMKKIPPGAEASNILVGELEFLDRTVVAFVRLSPAVLLQGLAEVPIPTRFLFILLGPLGKGQQYHEIGRSIATLMTDEVFHDVAYKAKDRNDLVSGIDEFLDQVTVLPPGEWDPSIRIEPPKNVPSQEKRKIPAVPNGTAAHGEAEPHGGHSGPELQRTGRIFGGLILDIKRKAPYFWSDFRDAFSLQCLASFLFLYCACMSPVITFGGLLGEATEGRISAIESLFGASMTGIAYSLFGGQPLTILGSTGPVLVFEKILFKFCKEYGLSYLSLRASIGLWTATLCIILVATDASSLVCYITRFTEEAFASLICIIFIYEALEKLFELSEAYPINMHNDLELLTQYSCNCVEPHNPSNGTLKEWRESNISASDIIWENLTVSECKSLHGEYVGRACGHDHPYVPDVLFWSVILFFSTVTLSATLKQFKTSRYFPTKVRSIVSDFAVFLTILCMVLIDYAIGIPSPKLQVPSVFKPTRDDRGWFVTPLGPNPWWTVIAAIIPALLCTILIFMDQQITAVIINRKEHKLKKGCGYHLDLLMVAVMLGVCSIMGLPWFVAATVLSITHVNSLKLESECSAPGEQPKFLGIREQRVTGLMIFILMGSSVFMTSILKFIPMPVLYGVFLYMGASSLKGIQFFDRIKLFWMPAKHQPDFIYLRHVPLRKVHLFTIIQMSCLGLLWIIKVSRAAIVFPMMVLALVFVRKLMDLLFTKRELSWLDDLMPESKKKKLEDAEKEEEQSMLAMEDEGTVQLPLEGHYRDDPSVINISDEMSKTALWRNLLITADNSKDKESSFPSKSSPS
  stoichiometry N: 2
